Experiments:
[1] = system: CC(C)CCC[C@@H](C)[C@H]1CC[C@H]2[C@@H]3CC=C4C[C@@H](O[C@H]5O[C@H](CO)[C@@H](O)[C@H](O)[C@H]5O)CC[C@]4(C)[C@H]3CC[C@]12C; experiment: purified protein; conditions: Ca2+ acyl acceptor; sequential rapid-equilibrium random bi-bi mechanism
[2] = system: CCCCCCCCCCCCCC(=O)OC[C@H](COP(=O)(O)OCCN)OC(=O)CCCCCCCCCCCCC; experiment: purified protein; conditions: Ca2+ acyl donor; phospholipase A1-type, a1-position acyl chain transferred to CG

Question: Which results are given for “cholesteryl α-D-glucopyranoside 6′-acyltransferase (CGAT) (Helicobacter pylori 26695)”?
Answer: Km [1]: 26.0 µM; Km [2]: 290 µM

Reference: PMC7069968, “Cholesteryl α-D-glucoside 6-acyltransferase enhances the adhesion of Helicobacter pylori to gastric epithelium” (Communications Biology, 2020)
